Data: article PMC3360062

Substrate: C[C@H](N)C(=O)O
Assay: purified protein
Details: 0.5 mM ATP, 10 mM MgCl2, 50 mM Tris-HCl pH 7.5, 25°C, 0.25 µM enzyme, 5 min, alanine 0.1-0.5 mM

B1: Sare0718 (Salinispora arenicola) (protein)
chain: QRTSTTTTAETTTSTRATGRTNLPASPYPIHPPEPLATLSPRDRALFVRFGYGPTESVAHTHIHHAFEYWATVTPEAVAVEDGDETITYRELDQRADQLAARLAASGVRPGDRVALFVRRSIPMVVGLLAALKAGAAYVPQHVDTVPPAQLQHVIHTADTRVIMTLAATADRIPVPDGHVVITLDDLGKTEPTDLIAGRFTPATPLPPDSPCYVLFTSGSTGRPNGVVVTHRNICNILLTSPGNLGIQPGWKVGQILNIAFDMASWEILGALSHGATLVIRGSDIVETMSRVDVIIATPTVLSRTDPDRCQRVKVVAVAGEPCPRALADAWSAVCAFYNACGPTETTIVNTMSRHRPTAERLTIGRPTPNNTVYVLDADLRPCPIGTVGEMWAGGDCVSAGYLSNARLTAERYALDPFLGHGRLMFRTRDLGRWTPDGELEHFGRTDDQVKVRGFRVELDSVSAILEAVPGCTRAATIKLDDRSLVSFVAPAEVDPDLARMAVSEALPYYCVPETVHTLPELPTTSRGKIDKLALRRLVTRQDQLVTSQEQGATR
B1 was tested, and the Km was 116.4 ± 15.9 µM and the kcat was 0.209893 ± 0.00852 s⁻¹.
